In patent publication US20170088624A1 (Janssen / Centocor, published 2017):

Columns and labels:
[1] = target: T1, Full length human CD40 (huCD40) on cells (human, UniProt P25942 21-277); experiment: cell-based or functional assay
[2] = target: T1, Full length human CD40 (huCD40) on cells; experiment: cell-based or functional assay; remark: listed apart in the source
human CD40 (SPR analyte) = target: T2, human CD40 (SPR analyte) (human, UniProt P25942 21-193); experiment: SPR ProteOn XPR36, mAb captured by anti-human IgG Fc, CD40 as analyte, 25 C
T2 construct: also called huCD40-ECD
Procedure: (§1) Affinity measurements were performed using Surface Plasmon Resonance (SPR) using a ProteOn XPR36 system (BioRad). […] Approximately 5000 RU (response units) of mAbs were immobilized. The kinetic experiments were performed at 25° C. in running buffer (DPBS+0.01% P20+100 μg/ml BSA). To perform kinetic experiments, 200 RU of mAbs were captured followed by injections of analytes (human or cyno CD40) at 5 concentrations (in a 4-fold serial dilution). The association phase was monitored for 3 minutes at 50 μL/min, then followed by 15 minutes of buffer flow (dissociation phase). The chip surface was regenerated with two 18 second pulses of 100 mM H₃PO₄ (Sigma, Cat#7961) at 100 μL/min.
(§2) The collected data were processed using ProteOn Manager software. First, the data was corrected for background using inter-spots. Then, double reference subtraction of the data was performed by using the buffer injection for analyte injections. The kinetic analysis of the data was performed using a Langmuir 1:1 binding model. The result for each mAb was reported in the format of Ka (On-rate), Kd (Off-rate) and KD (equilibrium dissociation constant).
The parameters reported in this table were obtained from a 1:1 Langmuir binding model for all samples. Affinity, KD=kd/ka.

[3] = target: T1, Full length human CD40 (huCD40) on cells; experiment: flow cytometry, HEK-Blue CD40L cells
[4] = target: T1, Full length human CD40 (huCD40) on cells; experiment: flow cytometry, human mature DCs
Procedure: (§3) Human monocytes were isolated from either frozen/fresh PBMC using CD14 negative isolation kit per manufacturer's protocol (MACS Miltenyi). Cyno monocytes were isolated from fresh PBMC using CD14 positive isolation kit per manufacturer's protocol (MACS Miltenyi). To generate DCs, monocytes were cultured for 5 days in complete media RPMI (Invitrogen) in the presence of 100 ng/ml human GM-CSF and human IL-4 (Peprotech) and media was replenished every 2 days. On day 5, DCs were stimulated with 100 ng/ml LPS (Sigma) for 24 hours. Cells were then stained with each of the tested CD40 antibody at different concentration in flow cytometry buffer (PBS+1% FBS; BD Bioscience) in 100 μl volume for 30 minutes on ice followed with two washes with flow buffer. Cells were then stained for additional 30 minutes on ice with APC-conjugated anti human IgG (Jackson ImmunoResearch) at the recommended dilution 1:100 and washed twice with flow buffer. Cells were analyzed for percent positive and Mean Fluorescence Intensity (MFI) to determine the antibody binding using Fortessa (BD Bioscience).
(§4) The experiments were conducted using assays described above. 20 antibodies were characterized further based on their binding to human DCs, cyno DCs, Raji cells and HEK-Blue™ CD40L cells.

[5] = target: T1, Full length human CD40 (huCD40) on cells; experiment: flow cytometry, Raji cells
cyno CD40 (SPR analyte) = target: T3, cyno CD40 (SPR analyte) (Macaca fascicularis (cynomolgus), UniProt P25942 21-193 (human entry), limits assumed); experiment: SPR ProteOn XPR36, mAb captured by anti-human IgG Fc, cyno CD40 as analyte, 25 C
T3 construct: also called cCD40-ECD
T3 chain: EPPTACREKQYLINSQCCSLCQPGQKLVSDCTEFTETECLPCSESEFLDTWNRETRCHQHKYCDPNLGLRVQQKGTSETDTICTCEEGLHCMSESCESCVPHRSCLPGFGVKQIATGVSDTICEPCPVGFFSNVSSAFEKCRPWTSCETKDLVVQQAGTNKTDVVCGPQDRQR
Procedure: as §1, §2

[6] = target: T4, Macaca fascicularis (cyno) CD40 (cCD40) on cells (Macaca fascicularis (cynomolgus), UniProt P25942 21-277 (human entry)); experiment: flow cytometry, cyno mature DCs
T4 construct: CD40 on cyno mature DCs
T4 chain: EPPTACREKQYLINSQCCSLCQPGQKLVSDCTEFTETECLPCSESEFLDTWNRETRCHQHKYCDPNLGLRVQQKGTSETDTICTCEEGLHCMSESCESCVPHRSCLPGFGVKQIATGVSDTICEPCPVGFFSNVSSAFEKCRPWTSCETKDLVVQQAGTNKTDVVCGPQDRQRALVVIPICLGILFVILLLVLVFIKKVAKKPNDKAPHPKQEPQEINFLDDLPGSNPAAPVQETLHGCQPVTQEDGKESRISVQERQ
Procedure: as §3, §4

B1: C40M67 (antibody, human IgG1, kappa, V domains shown)
VH: EVQLLESGGGLVQPGGSLRLSCAASGFTFSDYAMNWVRQAPGKGLEWVSGIKSGGSSKYYADSVKGRFTISRDNSKNTLYLQMNSLRAEDTAVYYCAKHVDFYRALDYWGQGTLVTVSS
VL: EIVLTQSPGTLSLSPGERATLSCRASQSVKNSSLAWYQQKPGQAPRLLIYTASSRATGIPDRFSGSGSGTDFTLTISRLEPEDFAVYYCQQSSAPPWTFGQGTKVEIKR
notes: Full-length IgG1/kappa; from phage display
- B cells EC50, CD23 surface expression, with cross-linker [1]: 0.00417 µg/mL
- B cells EC50, CD80 surface expression, with cross-linker [1]: 3.32 ng/mL
- B cells EC50, CD83 surface expression, with cross-linker [1]: 1.46 ng/mL
- B cells EC50, CD86 surface expression, with cross-linker [1]: 2.26 ng/mL
- B cells EC50, HLA-DR surface expression, with cross-linker [1]: 0.792 ng/mL
- DC EC50, CD80 surface expression, with cross-linker [2]: 49.9 ng/mL
- DC EC50, CD83 surface expression, with cross-linker [2]: 0.127 µg/mL
- DC EC50, CD86 surface expression, with cross-linker [2]: 0.202 µg/mL
- DC EC50, HLA-DR surface expression, with cross-linker [2]: 0.0507 µg/mL
- Kd (human CD40 (SPR analyte)): 1.91 nM
- koff (human CD40 (SPR analyte)): 0.00031 s⁻¹
- kon (human CD40 (SPR analyte)): 163000 M⁻¹ s⁻¹
- EC50 [3]: 0.55 µg/mL
- EC50 [4]: 0.766 µg/mL
- EC50 [5]: 0.247 µg/mL
- Kd (cyno CD40 (SPR analyte)): 1.85 nM
- koff (cyno CD40 (SPR analyte)): 0.000341 s⁻¹
- kon (cyno CD40 (SPR analyte)): 184000 M⁻¹ s⁻¹
- EC50 [6]: 0.327 µg/mL

B2: C40M59 (antibody, human IgG1, kappa, V domains shown)
VH: QVQLVQSGAEVKKPGSSVKVSCKASGGTFSSYWISWVRQAPGQGLEWMGYIIPISGTARYAQKFQGRVTITADESTSTAYMELSSLRSEDTAVYYCAREPGYSSGLSVDYFDYWGQGTLVTVSS
VL: not shown
notes: as for B1
- B cells EC50, CD23 surface expression, with cross-linker [1]: 1.24 µg/mL
- B cells EC50, CD80 surface expression, with cross-linker [1]: 10.6 ng/mL
- B cells EC50, CD83 surface expression, with cross-linker [1]: 10.8 ng/mL
- B cells EC50, CD86 surface expression, with cross-linker [1]: 15.4 ng/mL
- B cells EC50, HLA-DR surface expression, with cross-linker [1]: 4.84 ng/mL
- DC EC50, CD80 surface expression, with cross-linker [2]: 0.342 ng/mL
- DC EC50, CD83 surface expression, with cross-linker [2]: 0.276 µg/mL
- DC EC50, CD86 surface expression, with cross-linker [2]: 0.00979 µg/mL
- DC EC50, HLA-DR surface expression, with cross-linker [2]: 0.0536 µg/mL
- Kd (human CD40 (SPR analyte)): 9 nM
- koff (human CD40 (SPR analyte)): 0.00106 s⁻¹
- kon (human CD40 (SPR analyte)): 118000 M⁻¹ s⁻¹
- EC50 [3]: 0.354 µg/mL
- EC50 [4]: 0.826 µg/mL
- EC50 [5]: 0.125 µg/mL
- Kd (cyno CD40 (SPR analyte)): 6.92 nM
- koff (cyno CD40 (SPR analyte)): 0.000995 s⁻¹
- kon (cyno CD40 (SPR analyte)): 144000 M⁻¹ s⁻¹
- EC50 [6]: 0.074 µg/mL

B3: C40M12 (antibody, human IgG1, lambda, V domains shown)
VH: EVQLVESGGGLVQPGGSLRLSCAASGFTFGSYAMSWVRQAPGKGLEWVSVISDSGGRTYYADSVKGRFTISRDYSKNTLYLQMNSLRAEDTAVYYCAKEGGDYYYYGMDVWGQGTTVTVSS
VL: SYELTQPPSVSVSPGQTASIICSGDKLGDKYVCWYQQKPGQSPVVVIYHDNKRPSGIPERFSGSNSGNTATLTISGTQAMDEADYYCQVWDSSTVVFGGGTKLTVLG
notes: Full-length IgG1/lambda; from OmniRat (OMT)
- B cells EC50, CD23 surface expression, with cross-linker [1]: 125 µg/mL
- B cells EC50, CD80 surface expression, with cross-linker [1]: 6.23 ng/mL
- B cells EC50, CD83 surface expression, with cross-linker [1]: 2.84 ng/mL
- B cells EC50, CD86 surface expression, with cross-linker [1]: 2.28 ng/mL
- B cells EC50, HLA-DR surface expression, with cross-linker [1]: 4.27 ng/mL
- DC EC50, CD80 surface expression, with cross-linker [2]: 0.00393 ng/mL
- DC EC50, CD83 surface expression, with cross-linker [2]: 0.332 µg/mL
- DC EC50, CD86 surface expression, with cross-linker [2]: 0.502 µg/mL
- DC EC50, HLA-DR surface expression, with cross-linker [2]: 0.301 µg/mL
- Kd (human CD40 (SPR analyte)): 0.136 nM
- koff (human CD40 (SPR analyte)): 0.000176 s⁻¹
- kon (human CD40 (SPR analyte)): 1.3e+06 M⁻¹ s⁻¹
- EC50 [3]: 0.112 µg/mL
- EC50 [4]: 0.298 µg/mL
- EC50 [5]: 0.0299 µg/mL
- Kd (cyno CD40 (SPR analyte)): 0.243 nM
- koff (cyno CD40 (SPR analyte)): 0.000441 s⁻¹
- kon (cyno CD40 (SPR analyte)): 1.81e+06 M⁻¹ s⁻¹
- EC50 [6]: 0.0474 µg/mL
